Data on 13 sequences can be found in the DeepSol protein solubility set.

The series can be described thus: soluble on expression in E. coli; label from the status in PepcDB or PDB records.
Regarding “MEWAMNEHHQPFEEIRHYGTEGQEFWSARELAPLLDYRDWRNFQKVLARATQACEASNQAASDHFVETTKMVVLGSGAQRELEDVHLSRYACYLVVQNGDPAKPVIAAGQTYFAIQTRRQELADDEAFKQLREDEKRLFLRNELKEHNKQLVEAAQQAAVATATDFAIFQNHGYQGLYGGLDQKAIHQLKGLKKSQKILDHMGSTELAANLFRATQTEEKLKRDGVNSKQQANTTHFDVGSKVRQTIQELGGTMPEELPTPQVSIKQLENSVKITEKK”, the “soluble on expression in E. coli” value is recorded as “not soluble”.

Take “STSTFNPRECKLSKQEGQNYGFFLRIEKDTEGHLVRVVEKCSPAEKAGLQDGDRVLRINGVFVDKEEHMQVVDLVRKSGNSVTLLVLDGDSYEKAVKTRVDLKELGQSQKEQGLSDNILSPVMNGGVQTWTQPRLCYLVKEGGSYGFSLKTVQGKKGVYMTDITPQGVAMRAGVLADDHLIEVNGENVEDASHEEVVEKVKKSGSRVMFLLVDKETDKRHVEQKIQFKRETASLKLLPHQPRIVEMKKGSNGYGFYLRAGSEQKGQIIKDIDSGSPAEEAGLKNNDLVVAVNGESVETLDHDSVVEMIRKGGDQTSLLVVDKETDNMYRLAHFSPFLYYQSQELPNGSVKEAPAPTPTSLEVSSPPDTTEEVDHKPKLCRLAKGENGYGFHLNAIRGLPGSFIKEVQKGGPADLAGLEDEDVIIEVNGVNVLDEPYEKVVDRIQSSGKNVTLLVCGKKAYDYFQAKKIPIVSSLADPLDTPPDSKEGIVVESNHDSHMAKERAHSTASHSSSNSEDTEM”: the “soluble on expression in E. coli” value was “soluble”.

In the case of “MGSDKIHHHHHHMKQELALFIKKIIDLPAAEEKKLLAITRVYKVPKGDFYIQIGQIPKKFAFVAKGLFRYVYIDSKGNEFTKNFVPENNFALAYSSMIRHEVSKMAIEALEDSIICEIDYTDWLTLKKGNACWNIFLITILENAFTIKENRERDLLLLDAEQRYETFRQEFPALETRVKQHLIASYLGISPVSLSRIRKKRT”, the “soluble on expression in E. coli” value is “not soluble”.

Regarding “KEAIVFSQKTTIDQLHNSLNAASKTGNSNEVLQDPHIGDMYGSVTPLRPQVTRMLGKYAKEKEDMLSLRQVLANAERSYNQLMDRAAN”, the “soluble on expression in E. coli” value is given as “soluble”.

As to “TSKATIRDLNDPSQVKTLQEKASKGAGTVVAVIDAGFDKNHEAWRLTDKTKARYQSKEDLEKAKKEHGITYGEWVNDKVAYYHDYSKDGKTAVDQEHGTHVSGILSGNAPSETKEPYRLEGAMPEAQLLLMRVEIVNGLADYARNYAQAIRDAVNLGAKVINMSFGNAALAYANLPDETKKAFDYAKSKGVSIVTSAGNDSSFGGKTRLPLADHPDYGVVGTPAAADSTLTVASYSPDKQLTETATVKTDDHQAKEMPVLSTNRFEPNKAYDYAYANRGMKEDDFKDVKGKIALIERGDIDFKDKIANAKKAGAVGVLIYDNQDKGFPIELPNVDQMPAAFISRKDGLLLKDNSKKTITFNATPKVLPTASDTKLSRFSSWGLTADGNIKPDIAAPGQDILSSVANNKYAKLSGTSMSAPLVAGIMGLLQKQYETQYPDMTPSERLDLAKKVLMSSATALYDEDEKAYFSPRQQGAGAVDAKKASAATMYVTDKDNTSSKVHLNNVSDKFEVTVTVHNKSDKPQELYYQATVQTDKVDGKHFALAPKALYETSWQKITIPANSSKQVTVPIDASRFSKDLLAQMKNGYFLEGFVRFKQDPKKEELMSIPYIGFRGDFGNLSALEKPIYDSKDGSSYYHEANSDAKDQLDGDGLQFYALKNNFTALTTESNPWTIIKAVKEGVENIEDIESSEITETIFAGTFAKQDDDSHYYIHRHANGKPYAAISPNGDGNRDYVQFQGTFLRNAKNLVAEVLDKEGNVVWTSEVTEQVVKNYNNDLASTLGSTRFEKTRWDGKDKDGKVVVNGTYTYRVRYTPISSGAKEQHTDFDVIVDNTTPEVATSATFSTEDRRLTLASKPKTSQPIYRERIAYTYMDEDLPTTEYISPNEDGTFTLPEEAETMEGGTVPLKMSDFTYVVEDMAGNITYTPVTKLLEGHS”, the “soluble on expression in E. coli” value is “soluble”.

Turning to “MYDYGTFAFASKADVLDQAKAFWNPDKTQFWTDSGVDLVIDRREGYFLWDMSGRRLIDLHLNGGTYNIGHRNPEVMQAISEGMAHFDVGNHHFPSVARTALAKRLVETAPASIKKVAFGSGGGEAIDIALKSARHGTQRRKIVSVIKAYHGHTGLAVATGDDRFAKLFLADRPDEFIQVPFGDIGAMEAALAGGDVAAVIMETIPATYGFPLPPPGYLEAVKALTERHGTLYIADEVQTGLMRTGELWGITKHGIDPDIIVTGKGLSGGMYPISAVLLGERAARWLDQDGFGHISTFGGAELGCVAAIKTLEICTRPEVRSMVHYIADIFDTGLRRIQADYPDWFVGIRQNGVVIGLEFDHPEGAKFVMRELYENGVWAIFSTLDPRVLQFKPGLLLSRELCEDVLDRLEVAVGRARATVTGRRNG”, the “soluble on expression in E. coli” value is “not soluble”.

With “MGHHHHHHSHMTATVENLTFQKDTLGNAVDKNRRHGSTEPLVLAWSSQFRRLTWGCALDALHRSPCVAASQHGVTHLIRSSRTPHSTRCRKEDAQPGHHGNGAASVTAQARGQR”, the “soluble on expression in E. coli” value is on record as “not soluble”.

Take “GAMGQTTFTELMQQLFLKLGLNHQVNENDVYTFEVDGHIQVLIACYHQQWVQLFSELGADLPTNDNLFGEHWPAHVQGRLDGKSILWSQQSLVGLDIDEMQAWLERFIDDIEQRKEPQNTKFQPNSTSPILFI”: the “soluble on expression in E. coli” value is on record as “soluble”.

Consider “AHHHHHHGSRGILDDIDKKIIEILQKDGKVPLREISKITGLAESTIHERIKRLRESGVIKKFTAVVNPEALGYNILAFILIKVKAGKYSEVASKLVKYPEIVEVYETTGDYDMVVKIRTKNSEELNNFLDMVGSIEGVEGTHTMIVLKVHKETTELPVK”, for which the “soluble on expression in E. coli” value is given as “soluble”.

For “MFRLSALYRYPIKSSAAESLERVALDALGVVGDRRWMAVDTETGRFFTQRLLPQLGRIQARWAAPEVLRLNAPGMSELSLEVPAADANLRGVTVWRDTLQAPDAGDAAADWLTRFLGRP”, the “soluble on expression in E. coli” value was “not soluble”.

Turning to “MASFVTSKRDFRARAHSNPLNDAEFLVPEDPLRFDWSPFIPDVGSHPIDYVDLGCGYGGLLCELSIAFPNKYMLGMEIRDRVASYCVTKLEELRRLNSKGYRNIGFIRTNCMKFLPFYFPPSSVEKFFICFPDPHFKKKKHRQRLVSLRFLSEAAYCLRPGGMIYIVTDVEELFAWMTNLFAQHPLFLTMDKELVKQQDVLLPYLLNHTDEAQRMKRRGQDTPYWNVFQRKTVFC”, the “soluble on expression in E. coli” value was “not soluble”.

Regarding “MSLDFSHEFFGSLDPQALAHPDSIKWQHYGEGVIPMWIADMDFPVAPPILRALEDRLTRGLGYPLGRDDRLIADLQTKWASQGLTDVPADGIHFTPSVVPGLYAGVHGLTEPGDRVVTMTPIYHPFHLAINDLGREVAAAPLREGDTRWEIDWDALERAAEGARLLMLCHPHNPCGRVWDADELARLRELVLAHDLYVISDELHADLRFTDAPFEAFAADPRVRDRTLTVTGPCKAFNTAGLGIGVMVTHDPELLARVQRRVAGLGGHPSALSFTMWRVALEDGGPWLARTVEYLRGNRDFMTAFLRERLPWVRFTVPEATYLAWLDLREHPEAGRIQEFLLEEAKVAVHNGPTFAPGEQGAAYQGFIRVNFATSRAILTEALERMARALDTRQEGHHHHHH”, the “soluble on expression in E. coli” value is on record as “not soluble”.

Consider “MASMTGGQQMGRGSMQNPSVTISVNANAGRHPINPAVYGLAYATTATLADLNVPLHRYGGNNTSRYNWQLNADNRGADWYFESIGEASSVAGERGDTFIANSQAAGAQAMITIPTIGWVARLGANRSKLASFSIAKYGAQSGNDWQWFPDAGNGVLTSGQNVTGNNPNDANTLVDSTFQQGWAQHLVSQWGTAAGGGLRYYILDNEPSIWFSTHRDVHPVGPTMDEIRDKMLDYGAKIKTVDPSALIVGPEEWGWSGYTLSGYDQQYGGLHGWSFMPDRNNHGGWDYLPWLLDQLRQNNLSTGRRLLDVFSVHYYPQGGEFGNDTSSAMQLRRNRSTRSLWDPNYIDETWINDKVQLIPRLKNWVSTYYPGTLTAITEYNWGAESHINGATTQADILGIFGREGLDMAARWTTPDTATPTYKAIKMYRNYDGNKSAFGDTSVTATAPNPDNVSAFAAVRSSDGALTVMVINKYLSGNTPATINLSNFTAQAQAQVWQLTAANTINHLSNVSLSGSSLSLTLPAQSVTLLVIPAST”, for which the “soluble on expression in E. coli” value is listed as “soluble”.
